Measured values published in patent US9395368B2, “Methods, agents and peptides for inducing an immune response to matrix metalloproteinase-2 expressing tumors” (New York University, priority 2010, dated 2016).

Tested on: OX40L expression on DCs
Assay: OX40L expression on DCs by surface staining
Format: cell-based, human
Conditions: immature and poly(I:C)-matured DCs, n=9, 24 h
Experimental: Immature and poly(I:C)-matured DCs were incubated with active or HI MMP-2 (0.5 μg/mL or 5 μg/mL) for 24 h. MMP-2 enzymatic activity was controlled (FIG. 13C-D). OX40L expression was assessed by surface staining (A) Histogram plots are shown for representative donor HD1228. Isotype control is represented in tinted gray. (B) Mean fluorescent intensities are represented for all 9 donors tested. […] P values≦0.0167 (*) were considered statistically significant using a Bonferroni correction for 3 comparisons for each DC type. See also FIG. 12.
Dendritic cell preparation and activation. PBMCs were purified from healthy—(HD) or cord blood—(CB) donors and plated at 40×10^6 cells/10 mL/dish in complete IMDM with 5% PHS. Cells were allowed to adhere for 2 h at 37° C. Non-adherent cells were removed. The monocyte-enriched fraction was supplemented with 100 UI/mL rhGMCSF and 300 UI/mL rhIL-4 (R&D Systems) on days 0, 2 and 4. Immature DCs were harvested on day 5 and matured using poly(I:C) at 5 μg/mL/10^6 DCs (Amersham) Secretion of IL-12p70, TNFα, IL-1β, IL-6, IL-8 and IL-10 was assessed on both immature and mature DCs using the Human Inflammatory Cytokine Cytometric Bead Array (BD Pharmingen).

B1: active MMP-2: Purified human MMP-2 (mixture of the proenzyme (50%) and the active form (50%)) purchased from Biomol (protein, listed as Homo sapiens)
chain: MEALMARGALTGPLRALCLLGCLLSHAAAAPSPIIKFPGDVAPKTDKELAVQYLNTFYGCPKESCNLFVLKDTLKKMQKFFGLPQTGDLDQNTIETMRKPRCGNPDVANYNFFPRKPKWDKNQITYRIIGYTPDLDPETVDDAFARAFQVWSDVTPLRFSRIHDGEADIMINFGRWEHGDGYPFDGKDGLLAHAFAPGTGVGGDSHFDDDELWTLGEGQVVRVKYGNADGEYCKFPFLFNGKEYNSCTDTGRSDGFLWCSTTYNFEKDGKYGFCPHEALFTMGGNAEGQPCKFPFRFQGTSYDSCTTEGRTDGYRWCGTTEDYDRDKKYGFCPETAMSTVGGNSEGAPCVFPFTFLGNKYESCTSAGRSDGKMWCATTANYDDDRKWGFCPDQGYSLFLVAAHEFGHAMGLEHSQDPGALMAPIYTYTKNFRLSQDDIKGIQELYGASPDIDLGTGPTPTLGPVTPEICKQDIVFDGIAQIRGEIFFFKDRFIWRTVTPRDKPMGPLLVATFWPELPEKIDAVYEAPQEEKAVFFAGNEYWIYSASTLERGYPKPLTSLGLPPDVQRVDAAFNWSKNKKTYIFAGDKFWRYNEVKKKMDPGFPKLIADAWNAIPDNLDAVVDLQGGGHSYFFKGAYYLKLENQSLKSVKFGSIKSDWLGC
OX40L expression on DCs: significantly increased
